From PMC9045712 (Science Advances, 2022) come the findings set out here.

The target in this experiment is recombinant MCM2 (minichromosome maintenance protein 2), from 6x His-FLAG-TEV-MCM2 (mouse, UniProt P97310 1-904). Nature of the experiment: co-IP.
Sequence of recombinant MCM2 (minichromosome maintenance protein 2), from 6x His-FLAG-TEV-MCM2 (P97310 whole entry): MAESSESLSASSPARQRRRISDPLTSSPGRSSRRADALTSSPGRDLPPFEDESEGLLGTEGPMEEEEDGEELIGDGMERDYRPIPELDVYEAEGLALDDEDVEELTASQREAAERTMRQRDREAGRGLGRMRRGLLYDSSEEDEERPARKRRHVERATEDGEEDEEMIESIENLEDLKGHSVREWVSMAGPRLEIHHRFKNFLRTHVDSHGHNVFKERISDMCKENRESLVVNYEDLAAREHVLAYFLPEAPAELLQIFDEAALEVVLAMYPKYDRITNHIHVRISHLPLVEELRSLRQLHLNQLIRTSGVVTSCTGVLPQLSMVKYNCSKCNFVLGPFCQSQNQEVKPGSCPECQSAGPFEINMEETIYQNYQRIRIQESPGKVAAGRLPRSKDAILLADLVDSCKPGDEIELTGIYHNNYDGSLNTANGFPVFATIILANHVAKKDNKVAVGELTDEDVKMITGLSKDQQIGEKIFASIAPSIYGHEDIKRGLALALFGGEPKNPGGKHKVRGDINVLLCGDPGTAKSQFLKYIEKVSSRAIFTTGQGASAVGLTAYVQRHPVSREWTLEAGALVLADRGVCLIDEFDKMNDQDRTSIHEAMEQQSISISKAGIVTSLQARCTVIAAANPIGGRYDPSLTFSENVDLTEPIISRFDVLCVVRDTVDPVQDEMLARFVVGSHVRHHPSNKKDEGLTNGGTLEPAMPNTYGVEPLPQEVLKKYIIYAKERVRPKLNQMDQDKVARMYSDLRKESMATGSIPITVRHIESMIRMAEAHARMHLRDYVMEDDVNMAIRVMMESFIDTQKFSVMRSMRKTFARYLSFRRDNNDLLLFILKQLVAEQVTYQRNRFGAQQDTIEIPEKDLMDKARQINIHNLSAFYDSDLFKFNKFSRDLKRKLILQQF

B1: recombinant NPM1 (nucleophosmin), from 6x His-FLAG-TEV-NPM1 (natural protein)
chain: MEDSMDMDMSPLRPQNYLFGCELKADKDYHFKVDNDENEHQLSLRTVSLGAGAKDELHIVEAEAMNYEGSPIKVTLATLKMSVQPTVSLGGFEITPPVVLRLKCGSGPVHISGQHLVAVEEDAESEDEDEEDVKLLGMSGKRSAPGGGNKVPQKKVKLDEDDEDDDEDDEDDEDDDDDDFDEEETEEKVPVKKSVRDTPAKNAQKSNQNGKDLKPSTPRSKGQESFKKQEKTPKTPKGPSSVEDIKAKMQASIEKGGSLPKVEAKFINYVKNCFRMTDQEAIQDLWQWRKSL
For the molecule B1, the binding result was “binds”.
